In publication PMC4330345 (Nucleic Acids Research, 2015):

T1: HlyU_Vc wild type (Vibrio cholerae, UniProt P52695 1-108)
T1 sequence: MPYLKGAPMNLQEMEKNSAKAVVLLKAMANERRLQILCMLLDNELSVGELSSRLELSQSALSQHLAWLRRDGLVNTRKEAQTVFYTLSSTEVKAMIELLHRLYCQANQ


Target: the molecule itself
Test: SEC
Settings: not given

Binder	stoichiometry N
HlyU of V. cholerae, wild type (natural protein, not shown: His6, N-terminal, cleaved) MPYLKGAPMNLQEMEKNSAKAVVLLKAMANERRLQILCMLLDNELSVGELSSRLELSQSALSQHLAWLRRDGLVNTRKEAQTVFYTLSSTEVKAMIELLHRLYCQANQ	2

Target: T1, HlyU_Vc wild type
Test: EMSA; EMSA: 1 nM probe, 1 mM Tris, 6 mM NaCl, 0.5 mM MgCl2, 0.01 mM EDTA, 0.1 mM CaCl2, 0.2% glycerol, 0.03 mg/ml salmon sperm DNA, 1 h, 4 C, pH not stated; footprint: ~10 nM DNA, 1 h, 4 C
Settings: protein: recombinant; tags: N-terminal 6xHis removed with thrombin; chain copies: 2; label: radiolabel; blunt

Binder	binding result
O1 (dsDNA) DNA 1: TTTATAAATTAATTCAGACTAAATTAGTTCAAATT DNA 2: AATTTGAACTAATTTAGTCTGAATTAATTTATAAA	binds
O2 (dsDNA) DNA 1: ATTAATCTTTAAATCAACTTTATAAATTAATTCAG DNA 2: CTGAATTAATTTATAAAGTTGATTTAAAGATTAAT	no binding
O3 (dsDNA) DNA 1: TTGGGGGGGGGGGGGGGACTAAATTAGTTCAAATT DNA 2: AATTTGAACTAATTTAGTCCCCCCCCCCCCCCCAA	no binding

Target: the molecule itself
Test: SEC; analytical gel filtration (AKTA prime Plus); 500 ug protein injected; 50 mM sodium phosphate, 200 mM sodium chloride, pH 6.8; molecular weight from marker proteins; self-association, dimer against monomer
Settings: not given

Binder	binding result
HlyU_Vc L98D (natural protein, source: E. coli BL21 (DE3), purified (Ni-NTA); not shown: His6, N-terminal, cleaved) MPYLKGAPMNLQEMEKNSAKAVVLLKAMANERRLQILCMLLDNELSVGELSSRLELSQSALSQHLAWLRRDGLVNTRKEAQTVFYTLSSTEVKAMIEDLHRLYCQANQ	binds
HlyU_Vc Y85A (natural protein, source: E. coli BL21 (DE3), purified (Ni-NTA); not shown: His6, N-terminal, cleaved) MPYLKGAPMNLQEMEKNSAKAVVLLKAMANERRLQILCMLLDNELSVGELSSRLELSQSALSQHLAWLRRDGLVNTRKEAQTVFATLSSTEVKAMIELLHRLYCQANQ	binds
HlyU_Vc L65A (natural protein, source: E. coli BL21 (DE3), purified (Ni-NTA); not shown: His6, N-terminal, cleaved) MPYLKGAPMNLQEMEKNSAKAVVLLKAMANERRLQILCMLLDNELSVGELSSRLELSQSALSQHAAWLRRDGLVNTRKEAQTVFYTLSSTEVKAMIELLHRLYCQANQ	binds
HlyU_Vc N30A (natural protein, source: E. coli BL21 (DE3), purified (Ni-NTA); not shown: His6, N-terminal, cleaved) MPYLKGAPMNLQEMEKNSAKAVVLLKAMAAERRLQILCMLLDNELSVGELSSRLELSQSALSQHLAWLRRDGLVNTRKEAQTVFYTLSSTEVKAMIELLHRLYCQANQ	binds
HlyU_Vc T90A (natural protein, source: E. coli BL21 (DE3), purified (Ni-NTA); not shown: His6, N-terminal, cleaved) MPYLKGAPMNLQEMEKNSAKAVVLLKAMANERRLQILCMLLDNELSVGELSSRLELSQSALSQHLAWLRRDGLVNTRKEAQTVFYTLSSAEVKAMIELLHRLYCQANQ	binds
HlyU_Vc S62A (natural protein, source: E. coli BL21 (DE3), purified (Ni-NTA); not shown: His6, N-terminal, cleaved) MPYLKGAPMNLQEMEKNSAKAVVLLKAMANERRLQILCMLLDNELSVGELSSRLELSQSALAQHLAWLRRDGLVNTRKEAQTVFYTLSSTEVKAMIELLHRLYCQANQ	binds
HlyU_Vc R70A (natural protein, source: E. coli BL21 (DE3), purified (Ni-NTA); not shown: His6, N-terminal, cleaved) MPYLKGAPMNLQEMEKNSAKAVVLLKAMANERRLQILCMLLDNELSVGELSSRLELSQSALSQHLAWLRADGLVNTRKEAQTVFYTLSSTEVKAMIELLHRLYCQANQ	binds
HlyU_Vc Q63A (natural protein, source: E. coli BL21 (DE3), purified (Ni-NTA); not shown: His6, N-terminal, cleaved) MPYLKGAPMNLQEMEKNSAKAVVLLKAMANERRLQILCMLLDNELSVGELSSRLELSQSALSAHLAWLRRDGLVNTRKEAQTVFYTLSSTEVKAMIELLHRLYCQANQ	binds
HlyU_Vc R69A (natural protein, source: E. coli BL21 (DE3), purified (Ni-NTA); not shown: His6, N-terminal, cleaved) MPYLKGAPMNLQEMEKNSAKAVVLLKAMANERRLQILCMLLDNELSVGELSSRLELSQSALSQHLAWLARDGLVNTRKEAQTVFYTLSSTEVKAMIELLHRLYCQANQ	binds
HlyU_Vc H64A (natural protein, source: E. coli BL21 (DE3), purified (Ni-NTA); not shown: His6, N-terminal, cleaved) MPYLKGAPMNLQEMEKNSAKAVVLLKAMANERRLQILCMLLDNELSVGELSSRLELSQSALSQALAWLRRDGLVNTRKEAQTVFYTLSSTEVKAMIELLHRLYCQANQ	binds
HlyU_Vc K78A (natural protein, source: E. coli BL21 (DE3), purified (Ni-NTA); not shown: His6, N-terminal, cleaved) MPYLKGAPMNLQEMEKNSAKAVVLLKAMANERRLQILCMLLDNELSVGELSSRLELSQSALSQHLAWLRRDGLVNTRAEAQTVFYTLSSTEVKAMIELLHRLYCQANQ	binds
HlyU_Vc E49A (natural protein, source: E. coli BL21 (DE3), purified (Ni-NTA); not shown: His6, N-terminal, cleaved) MPYLKGAPMNLQEMEKNSAKAVVLLKAMANERRLQILCMLLDNELSVGALSSRLELSQSALSQHLAWLRRDGLVNTRKEAQTVFYTLSSTEVKAMIELLHRLYCQANQ	binds
HlyU_Vc A66S (natural protein, source: E. coli BL21 (DE3), purified (Ni-NTA); not shown: His6, N-terminal, cleaved) MPYLKGAPMNLQEMEKNSAKAVVLLKAMANERRLQILCMLLDNELSVGELSSRLELSQSALSQHLSWLRRDGLVNTRKEAQTVFYTLSSTEVKAMIELLHRLYCQANQ	binds
HlyU_Vc R33A (natural protein, source: E. coli BL21 (DE3), purified (Ni-NTA); not shown: His6, N-terminal, cleaved) MPYLKGAPMNLQEMEKNSAKAVVLLKAMANERALQILCMLLDNELSVGELSSRLELSQSALSQHLAWLRRDGLVNTRKEAQTVFYTLSSTEVKAMIELLHRLYCQANQ	binds
HlyU_Vc K26A (natural protein, source: E. coli BL21 (DE3), purified (Ni-NTA); not shown: His6, N-terminal, cleaved) MPYLKGAPMNLQEMEKNSAKAVVLLAAMANERRLQILCMLLDNELSVGELSSRLELSQSALSQHLAWLRRDGLVNTRKEAQTVFYTLSSTEVKAMIELLHRLYCQANQ	binds
HlyU_Vc Q81A (natural protein, source: E. coli BL21 (DE3), purified (Ni-NTA); not shown: His6, N-terminal, cleaved) MPYLKGAPMNLQEMEKNSAKAVVLLKAMANERRLQILCMLLDNELSVGELSSRLELSQSALSQHLAWLRRDGLVNTRKEAATVFYTLSSTEVKAMIELLHRLYCQANQ	binds
HlyU_Vc R32A (natural protein, source: E. coli BL21 (DE3), purified (Ni-NTA); not shown: His6, N-terminal, cleaved) MPYLKGAPMNLQEMEKNSAKAVVLLKAMANEARLQILCMLLDNELSVGELSSRLELSQSALSQHLAWLRRDGLVNTRKEAQTVFYTLSSTEVKAMIELLHRLYCQANQ	binds
HlyU_Vc W67A (natural protein, source: E. coli BL21 (DE3), purified (Ni-NTA); not shown: His6, N-terminal, cleaved) MPYLKGAPMNLQEMEKNSAKAVVLLKAMANERRLQILCMLLDNELSVGELSSRLELSQSALSQHLAALRRDGLVNTRKEAQTVFYTLSSTEVKAMIELLHRLYCQANQ	binds
